Molecular target: Anti-CRP antibodies (polyclonal)
Assay: SPR (Spreeta chip), anti-CRP antibodies injected over OM layer with Z-domain on gold

“Z-domain of protein A autodisplayed on the E. coli outer membrane as a fusion protein of AIDA-I (from UniProt P38507 212-269; Q03155 840-1286)” showed an SPR signal of 1.1 A.U.

— patent publication US9482663
